Measurements as given in the FLAb antibody collection (doi:10.1101/2023.12.08.570889).

Biological target: FXI
Test: Kd (SPR)

Row | Binder | Kd
1 | unnamed (protein) chain 1: EVQLLESGGGLVQPGGSLRLSCAASGFTFSQYGMDWVRQAPGKGLEWVSGIGPSGGSTVYADSVKGRFTISRDNSKNTLYLQMNSLRAEDTAVYYCTRDGSAYYYAFDYWGQGTTVTVSS chain 2: DIQMTQSPSSLSASVGDRVTITCQASQDISNYLNWYQQKPGKAPKLLIYDASNLETGVPSRFSGSGSGTDFTFTISSLQPEDIATYYCQQADSFPVTFGGGTKVEIK | 248 nM
2 | unnamed (protein) chain 1: EVQLLESGGGLVQPGGSLRLSCAASGFTFSSYAMDWVRQAPGKGLEWVSGISGDGGSTVYADSVKGRFTISRDNSKNTLYLQMNSLRAEDTAVYYCTRGGPAYYYAFDYWGQGTTVTVSS chain 2: DIQMTQSPSSLSASVGDRVTITCQASQDISNYLNWYQQKPGKAPKLLIYDASNLETGVPSRFSGSGSGTDFTFTISSLQPEDIATYYCQQADSFPVTFGGGTKVEIK | 857 nM
3 | unnamed (protein) chain 1: EVQLLESGGGLVQPGGSLRLSCAASGFTFSSYAMDWVRQAPGKGLEWVSGISADGGSTVYADSVKGRFTISRDNSKNTLYLQMNSLRAEDTAVYYCTRGGPAYYYAFDYWGQGTTVTVSS chain 2: DIQMTQSPSSLSASVGDRVTITCQASQDISNYLNWYQQKPGKAPKLLIYDASNLETGVPSRFSGSGSGTDFTFTISSLQPEDIATYYCQQADSFPVTFGGGTKVEIK | 707 nM
4 | unnamed (protein) chain 1: EVQLLESGGGLVQPGGSLRLSCAASGFTFSSYAMDWVRQAPGKGLEWVSGISSDGGSTVYADSVKGRFTISRDNSKNTLYLQMNSLRAEDTAVYYCTRDGPYYYYAFDVWGQGTTVTVSS chain 2: DIQMTQSPSSLSASVGDRVTITCQASQDISNYLNWYQQKPGKAPKLLIYDASNLETGVPSRFSGSGSGTDFTFTISSLQPEDIATYYCQQADSFPVTFGGGTKVEIK | 693 nM
5 | unnamed (protein) chain 1: EVQLLESGGGLVQPGGSLRLSCAASGFTFSSYAMDWVRQAPGKGLEWVSGISSDGGSTVYADSVKGRFTISRDNSKNTLYLQMNSLRAEDTAVYYCTRDGPWYYYAFDVWGQGTTVTVSS chain 2: DIQMTQSPSSLSASVGDRVTITCQASQDISNYLNWYQQKPGKAPKLLIYDASNLETGVPSRFSGSGSGTDFTFTISSLQPEDIATYYCQQADSFPVTFGGGTKVEIK | 692 nM
6 | unnamed (protein) chain 1: EVQLLESGGGLVQPGGSLRLSCAASGFTFSSYAMDWVRQAPGKGLEWVSGISYDGGSTVYADSVKGRFTISRDNSKNTLYLQMNSLRAEDTAVYYCARGGPAYYYAFDVWGQGTTVTVSS chain 2: DIQMTQSPSSLSASVGDRVTITCQASQDISNYLNWYQQKPGKAPKLLIYDASNLETGVPSRFSGSGSGTDFTFTISSLQPEDIATYYCQQADSFPVTFGGGTKVEIK | 702 nM
7 | unnamed (protein) chain 1: EVQLLESGGGLVQPGGSLRLSCAASGFTFSSYAMDWVRQAPGKGLEWVSGISADGGSTVYADSVKGRFTISRDNSKNTLYLQMNSLRAEDTAVYYCTRDGPAYYYGFDVWGQGTTVTVSS chain 2: DIQMTQSPSSLSASVGDRVTITCQASQDISNYLNWYQQKPGKAPKLLIYDASNLETGVPSRFSGSGSGTDFTFTISSLQPEDIATYYCQQADSFPVTFGGGTKVEIK | 485 nM
8 | unnamed (protein) chain 1: EVQLLESGGGLVQPGGSLRLSCAASGFTFSSYAMDWVRQAPGKGLEWVSGISGDGGSTVYADSVKGRFTISRDNSKNTLYLQMNSLRAEDTAVYYCTRGGPAYYYGFDVWGQGTTVTVSS chain 2: DIQMTQSPSSLSASVGDRVTITCQASQDISNYLNWYQQKPGKAPKLLIYDASNLETGVPSRFSGSGSGTDFTFTISSLQPEDIATYYCQQADSFPVTFGGGTKVEIK | 546 nM
9 | unnamed (protein) chain 1: EVQLLESGGGLVQPGGSLRLSCAASGFTFSSYAMDWVRQAPGKGLEWVSGISSDGGSTVYADSVKGRFTISRDNSKNTLYLQMNSLRAEDTAVYYCTRGGPYYYYAFDVWGQGTTVTVSS chain 2: DIQMTQSPSSLSASVGDRVTITCQASQDISNYLNWYQQKPGKAPKLLIYDASNLETGVPSRFSGSGSGTDFTFTISSLQPEDIATYYCQQADSFPVTFGGGTKVEIK | 375 nM
10 | unnamed (protein) chain 1: EVQLLESGGGLVQPGGSLRLSCAASGFTFSSYAMDWVRQAPGKGLEWVSGISSDGGSTVYADSVKGRFTISRDNSKNTLYLQMNSLRAEDTAVYYCARGGPSYYYAFDVWGQGTTVTVSS chain 2: DIQMTQSPSSLSASVGDRVTITCQASQDISNYLNWYQQKPGKAPKLLIYDASNLETGVPSRFSGSGSGTDFTFTISSLQPEDIATYYCQQADSFPVTFGGGTKVEIK | 505 nM
11 | unnamed (protein) chain 1: EVQLLESGGGLVQPGGSLRLSCAASGFTFSSYAMDWVRQAPGKGLEWVSGISSDGGSTVYADSVKGRFTISRDNSKNTLYLQMNSLRAEDTAVYYCARGGPAYYYAFDVWGQGTTVTVSS chain 2: DIQMTQSPSSLSASVGDRVTITCQASQDISNYLNWYQQKPGKAPKLLIYDASNLETGVPSRFSGSGSGTDFTFTISSLQPEDIATYYCQQADSFPVTFGGGTKVEIK | 635 nM
12 | unnamed (protein) chain 1: EVQLLESGGGLVQPGGSLRLSCAASGFTFSSYGMDWVRQAPGKGLEWVSGISADGGSTVYADSVKGRFTISRDNSKNTLYLQMNSLRAEDTAVYYCTRGGPAYYYAFDVWGQGTTVTVSS chain 2: DIQMTQSPSSLSASVGDRVTITCQASQDISNYLNWYQQKPGKAPKLLIYDASNLETGVPSRFSGSGSGTDFTFTISSLQPEDIATYYCQQADSFPVTFGGGTKVEIK | 245 nM
13 | unnamed (protein) chain 1: EVQLLESGGGLVQPGGSLRLSCAASGFTFSSYAMDWVRQAPGKGLEWVSGISSDGGSTVYADSVKGRFTISRDNSKNTLYLQMNSLRAEDTAVYYCARGGPAYYYGFDVWGQGTTVTVSS chain 2: DIQMTQSPSSLSASVGDRVTITCQASQDISNYLNWYQQKPGKAPKLLIYDASNLETGVPSRFSGSGSGTDFTFTISSLQPEDIATYYCQQADSFPVTFGGGTKVEIK | 310 nM
14 | unnamed (protein) chain 1: EVQLLESGGGLVQPGGSLRLSCAASGFTFSSYGMDWVRQAPGKGLEWVSGISSDGGSTVYADSVKGRFTISRDNSKNTLYLQMNSLRAEDTAVYYCTRDGPAYYYAFDVWGQGTTVTVSS chain 2: DIQMTQSPSSLSASVGDRVTITCQASQDISNYLNWYQQKPGKAPKLLIYDASNLETGVPSRFSGSGSGTDFTFTISSLQPEDIATYYCQQADSFPVTFGGGTKVEIK | 58 nM
15 | unnamed (protein) chain 1: EVQLLESGGGLVQPGGSLRLSCAASGFTFSSYGMDWVRQAPGKGLEWVSGISSDGGSTVYADSVKGRFTISRDNSKNTLYLQMNSLRAEDTAVYYCTRGGPAYYYAFDVWGQGTTVTVSS chain 2: DIQMTQSPSSLSASVGDRVTITCQASQDISNYLNWYQQKPGKAPKLLIYDASNLETGVPSRFSGSGSGTDFTFTISSLQPEDIATYYCQQADSFPVTFGGGTKVEIK | 293 nM
16 | unnamed (protein) chain 1: EVQLLESGGGLVQPGGSLRLSCAASGFTFSSYGMDWVRQAPGKGLEWVSGISSDGGSTVYADSVKGRFTISRDNSKNTLYLQMNSLRAEDTAVYYCTRDGPSYYYAFDVWGQGTTVTVSS chain 2: DIQMTQSPSSLSASVGDRVTITCQASQDISNYLNWYQQKPGKAPKLLIYDASNLETGVPSRFSGSGSGTDFTFTISSLQPEDIATYYCQQADSFPVTFGGGTKVEIK | 80.9 nM
17 | unnamed (protein) chain 1: EVQLLESGGGLVQPGGSLRLSCAASGFTFSSYAMDWVRQAPGKGLEWVSGISSDGGSTVYADSVKGRFTISRDNSKNTLYLQMNSLRAEDTAVYYCARDGPSYYYAFDVWGQGTTVTVSS chain 2: DIQMTQSPSSLSASVGDRVTITCQASQDISNYLNWYQQKPGKAPKLLIYDASNLETGVPSRFSGSGSGTDFTFTISSLQPEDIATYYCQQADSFPVTFGGGTKVEIK | 51.1 nM
18 | unnamed (protein) chain 1: EVQLLESGGGLVQPGGSLRLSCAASGFTFSQYGMDWVRQAPGKGLEWVSGIGPSGGSTVYADSVKGRFTISRDNSKNTLYLQMNSLRAEDTAVYYCTRGGPYYYYGMDVWGQGTTVTVSS chain 2: DIQMTQSPSSLSASVGDRVTITCQASQDISNYLNWYQQKPGKAPKLLIYDASNLETGVPSRFSGSGSGTDFTFTISSLQPEDIATYYCQQADSFPVTFGGGTKVEIK | 102 nM
19 | unnamed (protein) chain 1: EVQLLESGGGLVQPGGSLRLSCAASGFTFSQYGMDWVRQAPGKGLEWVSGIGPSGGSTVYADSVKGRFTISRDNSKNTLYLQMNSLRAEDTAVYYCARRGRYGLYAMDYWGQGTTVTVSS chain 2: DIQMTQSPSSLSASVGDRVTITCQASQDISNYLNWYQQKPGKAPKLLIYDASNLETGVPSRFSGSGSGTDFTFTISSLQPEDIATYYCQQADSFPVTFGGGTKVEIK | 2040 nM
